Results from the supplement of paper PMC10724198.
± gives the standard deviation of the averaged measurements.

Tested on: Saccharomyces cerevisiae
Assay: protein stability index of tFT-peptide fusion (C-terminal peptide) (PSI (0-1 scale)); higher = more stable (slower turnover)
Details: temperature: 30 C
Procedure: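 MPS profiling in S. cerevisiae of the yeast C-terminome library: the last 12 aa of each annotated ORF are fused to the C-terminus of a sfGFP-mCherry timer, after a GGGS linker. Cells are FACS-sorted into 8 mCherry/sfGFP bins and deep-sequenced. PSI runs from 0 (unstable) to 1 (stable); wild type and das1Δ backgrounds, two technical replicates each.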

[1] = genetic background: das1 deletion

Sequence	protein stability index [1]	protein stability index (genetic background: wild type)
FRVVLNAQLNIQ [YOR108C-A C-terminal 12 aa]	0.69 ± 0.036	0.674 ± 0.006
FSAVSSWLSFIF [YNL046W C-terminal 12 aa]	0.772 ± 0.033	0.725 ± 0.013
FSCHSFEYLARR [YDR401W C-terminal 12 aa]	0.701 ± 0.013	0.677 ± 0.047
FSDLFSYSKSLV [ENT5 C-terminal 12 aa]	0.705 ± 0.04	0.744 ± 0.013
FSSSRDDISFDI [DRS2 C-terminal 12 aa]	0.7 ± 0.023	0.664 ± 0.0014
FTDDSGTIKQEE [CMR1 C-terminal 12 aa]	0.713 ± 0.0073	0.703 ± 0.026
FTNEIINKLSTM [IDH1 C-terminal 12 aa]	0.692 ± 0.052	0.5514 ± 0.0019
FTVKANSQSESA [GRX7 C-terminal 12 aa]	0.6758 ± 0.0034	0.694 ± 0.027
FVFVRYFNYADS [YCR081C-A C-terminal 12 aa]	0.631 ± 0.023	0.622 ± 0.011
FVLKCIKDMYAK [IRC25 C-terminal 12 aa]	0.682 ± 0.018	0.681 ± 0.017
FVSSDPGLTQWL [HNT2 C-terminal 12 aa]	0.745 ± 0.014	0.713 ± 0.0078
FVVKEGLLKNRK [GTF1 C-terminal 12 aa]	0.701 ± 0.027	0.7 ± 0.024
FYDLWDAYEDDS [GDB1 C-terminal 12 aa]	0.751 ± 0.028	0.704 ± 0.013
FYPVTSEFSKNK [HOB2 C-terminal 12 aa]	0.7 ± 0.039	0.767 ± 0.013
GAGAFAVGALLL [NCW2 C-terminal 12 aa]	0.7034 ± 0.0019	0.687 ± 0.026
GALALGLISYLL [FIT2 C-terminal 12 aa]	0.695 ± 0.007	0.686 ± 0.014
GALPTTDPLFQW [YJL043W C-terminal 12 aa]	0.7371 ± 0.0031	0.704 ± 0.0071
GAPSLYSYLLCL [IRC2 C-terminal 12 aa]	0.684 ± 0.0082	0.487 ± 0.019
GAVVAGAAALLL [TIP1 C-terminal 12 aa]	0.729 ± 0.024	0.709 ± 0.032
GCGEDLKKDILS [DOP1 C-terminal 12 aa]	0.71 ± 0.017	0.668 ± 0.024
GCVLGKLGYLKM [RAD33 C-terminal 12 aa]	0.719 ± 0.024	0.619 ± 0.07

Sequence	protein stability index [1]	protein stability index (genetic background: wild type)
GDDESRPRKMRR [BMS1 C-terminal 12 aa]	0.678 ± 0.0091	0.674 ± 0.012
GDDPYAEYFQDF [TPK2 C-terminal 12 aa]	0.735 ± 0.01	0.717 ± 0.039
GEAVPEPVEEES [SEC27 C-terminal 12 aa]	0.698 ± 0.013	0.691 ± 0.043
GFRPECLYYYIK [YPR016W-A C-terminal 12 aa]	0.5801 ± 0.0036	0.564 ± 0.024
GGPPKVNKDIIS [HAT2 C-terminal 12 aa]	0.708 ± 0.035	0.6995 ± 0.006
GIGFFAVCFERD [RCM1 C-terminal 12 aa]	0.6906 ± 0.0028	0.664 ± 0.012
GKCTSSKFKLSS [KRE6 C-terminal 12 aa]	0.71 ± 0.026	0.619 ± 0.024
GKNGARLSEIGW [SNZ2 C-terminal 12 aa]	0.7224 ± 0.0061	0.691 ± 0.025
GKNKKKSKHSKK [PRP43 C-terminal 12 aa]	0.702 ± 0.057	0.651 ± 0.0029
GLDPEELEDLVT [PDS1 C-terminal 12 aa]	0.688 ± 0.011	0.7032 ± 0.0028
GLEFVASRSASS [MDH2 C-terminal 12 aa]	0.692 ± 0.014	0.729 ± 0.033
GLNKNMLKKIIK [YPR084W C-terminal 12 aa]	0.715 ± 0.032	0.668 ± 0.03
GLQNRLARNNEK [MRP4 C-terminal 12 aa]	0.734 ± 0.018	0.6607 ± 0.0019
GLQVMNEMKQRW [ECM25 C-terminal 12 aa]	0.7091 ± 0.0069	0.724 ± 0.053
GMLGLSALLGGE [SEC11 C-terminal 12 aa]	0.687 ± 0.019	0.678 ± 0.016
GNLPQPVFQPLL [VHR1 C-terminal 12 aa]	0.701 ± 0.0019	0.6795 ± 0.0033
GQLTTDEETCIE [RTR2 C-terminal 12 aa]	0.6793 ± 0.0044	0.726 ± 0.034
GRDCISKRAILE [IMP2 C-terminal 12 aa]	0.7067 ± 0.0024	0.6702 ± 0.004
GRGLLGCRIQEL [NAS2 C-terminal 12 aa]	0.703 ± 0.012	0.681 ± 0.032
GSESILTAKQPI [OCA2 C-terminal 12 aa]	0.706 ± 0.0075	0.685 ± 0.009
GSNNRGYTLIDL [ENT1 C-terminal 12 aa]	0.698 ± 0.015	0.736 ± 0.029

Sequence	protein stability index [1]	protein stability index (genetic background: wild type)
GTDLLKENRNCS [YML096W C-terminal 12 aa]	0.669 ± 0.0067	0.6895 ± 0.0012
GTVDEIIKFLSE [YTA7 C-terminal 12 aa]	0.725 ± 0.023	0.736 ± 0.066
GVLLILASALFT [ZRT3 C-terminal 12 aa]	0.3294 ± 0.0016	0.341 ± 0.0088
GVSTGYEKIRYI [FUI1 C-terminal 12 aa]	0.734 ± 0.012	0.31 ± 0.025
GVVKFNSEHYRD [SAP185 C-terminal 12 aa]	0.721 ± 0.045	0.668 ± 0.034
GWLQDSNFTKYL [FUN19 C-terminal 12 aa]	0.6978 ± 0.0056	0.808 ± 0.13
GWQTGALIIKKH [SAF1 C-terminal 12 aa]	0.729 ± 0.0083	0.763 ± 0.11
GYDTVASLDFWG [ROM2 C-terminal 12 aa]	0.742 ± 0.018	0.761 ± 0.047
GYEDGTIKLNKI [ASA1 C-terminal 12 aa]	0.697 ± 0.033	0.682 ± 0.018
HAEFHARNLGLI [YJL068C C-terminal 12 aa]	0.7036 ± 0.0021	0.686 ± 0.023
HGGNISSSTYQA [GND2 C-terminal 12 aa]	0.698 ± 0.02	0.722 ± 0.054
HHVESVCIMKRI [TRM2 C-terminal 12 aa]	0.668 ± 0.014	0.675 ± 0.034
HPCTSLTSVIVV [YGL072C C-terminal 12 aa]	0.36 ± 0.045	0.433 ± 0.051
HSRNPKRSSTTL [TRK1 C-terminal 12 aa]	0.737 ± 0.034	0.767 ± 0.069
HTPSLKTWSTIK [FKS1 C-terminal 12 aa]	0.7108 ± 0.0063	0.711 ± 0.019
HVDKRTKIDQEA [ISW2 C-terminal 12 aa]	0.702 ± 0.056	0.681 ± 0.016
HWQYMKDYLNLY [SLI1 C-terminal 12 aa]	0.715 ± 0.033	0.684 ± 0.06
IAEGKSLGIIGA [HXK1 C-terminal 12 aa]	0.6923 ± 0.0061	0.686 ± 0.034
IAPSGKYYFPFG [YMR031W-A C-terminal 12 aa]	0.718 ± 0.011	0.684 ± 0.011
IARSRRAFLSKL [MRP7 C-terminal 12 aa]	0.843 ± 0.018	0.846 ± 0.089
IDASKDQDTMME [NUG1 C-terminal 12 aa]	0.693 ± 0.019	0.736 ± 0.068

Sequence	protein stability index [1]	protein stability index (genetic background: wild type)
IDEFYECLQDQQ [DCN1 C-terminal 12 aa]	0.704 ± 0.0073	0.721 ± 0.013
IDKFLNSAVLSA [YMR307C-A C-terminal 12 aa]	0.5813 ± 0.0033	0.637 ± 0.017
IDKLRNSFYKTI [SMU2 C-terminal 12 aa]	0.687 ± 0.028	0.515 ± 0.028
IDSNNAQSKIFS [MYO1 C-terminal 12 aa]	0.6956 ± 0.00034	0.6648 ± 0.0055
IDVELEEESFTW [FRE1 C-terminal 12 aa]	0.698 ± 0.024	0.743 ± 0.022
IEFSMRSLCQGK [CFT1 C-terminal 12 aa]	0.7166 ± 0.0059	0.685 ± 0.038
IEHYKSEQEKSL [MUP1 C-terminal 12 aa]	0.6971 ± 0.0015	0.67 ± 0.035
IEQETGSEEKQE [SBP1 C-terminal 12 aa]	0.6781 ± 0.0035	0.7729 ± 0.0054
IFCTLFIHTQIL [PLC1 C-terminal 12 aa]	0.138 ± 0.011	0.143 ± 0.023
IFHQLQKKINRS [IWR1 C-terminal 12 aa]	0.703 ± 0.0083	0.6656 ± 0.0027
IFIFSWLGYEDS [ATG10 C-terminal 12 aa]	0.661 ± 0.043	0.664 ± 0.019
IGEWTISYTSLI [IPA1 C-terminal 12 aa]	0.66 ± 0.015	0.669 ± 0.041
IGFKRKRKHAKK [NOP4 C-terminal 12 aa]	0.703 ± 0.051	0.7117 ± 0.0028
IGFNKLGQMVYI [MRPS35 C-terminal 12 aa]	0.669 ± 0.018	0.666 ± 0.029
IGGNCATRLFKL [SLM6 C-terminal 12 aa]	0.7481 ± 0.0008	0.737 ± 0.024
IGRRKLVGYKHH [ATP20 C-terminal 12 aa]	0.702 ± 0.02	0.666 ± 0.015
IGSIKEDYLGAI [RPB7 C-terminal 12 aa]	0.692 ± 0.021	0.6737 ± 0.0027
IHYFKSNLSSPS [RAM1 C-terminal 12 aa]	0.688 ± 0.022	0.724 ± 0.028
IIDLNLHSFTKQ [POP6 C-terminal 12 aa]	0.722 ± 0.022	0.73 ± 0.021
